Here are results for 4 proteins from US20260125725A1 (ANTHEIA, published 2026).

Series [1] deals with the molecule itself. Kind of series: BS3 chemical cross-linking of purified recombinant protein, SDS-PAGE and immunoblot. Here is the method:
(§1) All versions of THS1 and THS2 transcripts were codon-optimized and expressed in E. coli. Purified recombinant THS proteins were added to SalAT-coupled enzyme assays. […] Chemical cross-linking with the purified, recombinant THS proteins was performed to confirm dimerization (FIGS. 15A and 15B). Both THS1 and THS2 can form homodimers, and also display the formation of higher molecular weight oligomers at lower abundance. […] To further investigate the relative abundance of THS isoforms in the plant, protein extracts derived from whole stem, latex-free stem, and latex isolated from the T chemotype were subjected to proteomics analysis (FIG. 11C). In detected peptides with at least one amino acid substitution spectral counts for THS2 were considerably higher than for THS1, consistent with the higher abundance of THS2, compared with THS1, transcripts (FIG. 12C).
(§2) Cross-linking experiments. Bis[sulfosuccinimidyl] suberate (BS3) was used as cross-linking reagent and prepared in PBS buffer at a concentration of 10 mM, of which 2 μL was added to 20 μL of purified recombinant protein (1 μg/μL). After incubation on ice for 1 h, 5 μL of 5×SDS (10% w/v) was added to quench the reaction. Samples were then boiled for 5 min and subjected to SDS-PAGE and immunoblot analysis.
In general terms: Immunoblotting shows a protein as a band on a membrane.

Series [2] deals with the molecule itself. Kind of series: cross-linking, SDS-PAGE and immunoblot (FIG. 15A). As to the method:
as §1, §2

Series [3] deals with the molecule itself. Kind of series: size exclusion chromatography of purified recombinant THS2 (FIG. 15B).

B1: THS1 (thebaine synthesis polypeptide isoform, SEQ ID NO. 80) (enzyme)
chain: MDSINSSIYFCAYFRELIIKLLMAPLGVSGLVGKLSTELEVDCDAEKYYNMYKHGEDVQKAVPHLCVDVKVISGDPTRSGCIKEWNVNIDGKTIRSVEETTHNDETKTLRHRVFEGDMMKDFKKFDTIMVVNPKPDGNGCVVTRSIEYEKTNENSPTPFDYLQFGHQAIEDMNKYLRDSE
notes: Purified recombinant protein from E. coli, made from a codon-optimized gene; It carries a His6-tag; 181 amino acids; also called thebaine synthase 1
For B1, the binding result in series [1] is recorded as “binds”.

B2: THS2s (N-terminally truncated splice variant of THS2, SEQ ID NO. 32) (enzyme)
chain: MYKHGEDVKKAVPHLCVDVKIISGDPTSSGCIKEWNVNIDGKTIRSVEETTHDDETKTLRHRVFEGDVMKDFKKFDTIMVVNPKPDGNGCVVTRSIEYEKTNENSPTPFDYLQFGHQAIEDMNKYLRDSESN
notes: Purified recombinant His6-tagged protein from E. coli; 133 amino acids; also called BetV1-1S; Bet v1-1S
As for B2, the binding result in series [2] is recorded as “binds”.

B3: THS2 (thebaine synthesis polypeptide isoform, SEQ ID NO. 6) (enzyme)
chain: MAPLGVSGLVGKLSTELEVDCDAEKYYNMYKHGEDVKKAVPHLCVDVKIISGDPTSSGCIKEWNVNIDGKTIRSVEETTHDDETKTLRHRVFEGDVMKDFKKFDTIMVVNPKPDGNGCVVTRSIEYEKTNENSPTPFDYLQFGHQAIEDMNKYLRDSESN
notes: Purified recombinant protein from E. coli, made from a codon-optimized gene; 163 amino acids; also called Betv1; Betv1M
As to B3, the binding result in series [3] was “binds”.

B4: THS1s (N-terminally truncated splice variant of THS1, SEQ ID NO. 81) (enzyme)
chain: MYKHGEDVQKAVPHLCVDVKVISGDPTRSGCIKEWNVNIDGKTIRSVEETTHNDETKTLRHRVFEGDMMKDFKKFDTIMVVNPKPDGNGCVVTRSIEYEKTNENSPTPFDYLQFGHQAIEDMNKYLRDSE
notes: Purified recombinant His6-tagged protein from E. coli; 131 amino acids
As to B4, in series [1], the binding result was “binds”.
